This experiment has as its target T1, human Aβ1-42 oligomers (human, UniProt P05067 672-713, fluorescently labeled in the TIRF imaging (HiLyte Fluor 647-labeled peptide bought, paragraph 100; 'AlexFlour647-conjugated' in paragraph 102); position not stated).
T1 construct: domain: Aβ1-42; Preformed oligomers; only the Aβ1-42 peptide was used; also called labeled Aβ1-42 oligomers; HiLyte Fluor 647-labeled Aβ1-42
The experiment in a line: TIRF single molecule imaging with photobleaching of aggregates formed in Httl4A2.6 lysates (data not shown). Here is the method: Httl4A2.6 cells were treated with 0.5 μM of Aβ1-40, Aβ1-42, alpha-synuclein, and A53T alpha-synuclein, Alzheimer's disease (AD), and Parkinson's disease—associated oligomers, in the same manner as polyQ seeds. No significant enhancement of intracellular mHttex 1-GFP aggregates was detected (data not shown). Confirming results were obtained from filter retardation-GFP immunoblotting following cell-free aggregation assays; no notable changes in mHttex1 aggregation were found in the cell lysates with up to 5 μM of Aβ1-40, Aβ1-42, alpha-synuclein, and A53T alpha-synuclein oligomeric seeds (data not shown). These observations were further corroborated by the total internal reflection microscopy (TIRF) single molecule imaging results based on photobleaching of mHttex1-GFP aggregates formed in Httl4A2.6 lysates seeded with either AlexFlour647-conjugated polyQ or Aβ1-42 oligomers (data not shown). In contrast to the polyQ oligomers, which were mostly linked with mHttex1-GFP aggregates from photobleaching imaging, few labeled Aβ1-42 oligomers overlapped with GFP fluorescence from the mHttex1-GFP aggregates.

T1 sequence (P05067 672-713 limits assumed): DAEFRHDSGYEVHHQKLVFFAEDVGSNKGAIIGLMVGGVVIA

B1: mHttex1-GFP (truncated expanded repeat Httn exon 1 protein fused at the C-terminus to EGFP) (other)
chain: MATLEKLMKAFESLKSFQQQQQQQQQQQQQQQQQQQQQQQQQQQQQQQQQQQQQQQQQQQQQQQQQQQQQQQQQQQQQQQQQQQQQQQQQQQQQQQQQQQQQQQQQQQQQQQQQQQQQQ
notes: Expressed in Httl4A2.6 inducible PC12 cells after Ponasterone A induction; tested inside cells or in cell lysate supernatants; No linker between Httn part and EGFP is described; also called N17-103Q-EGFP; GFP-tagged mHtt exon 1 protein; not shown: enhanced green fluorescent protein (EGFP), fused at the C-terminus; EGFP is an eng
As for B1, the binding result is “no binding”.
